Experimental data: paper PMC10239819

How the values were obtained:
[1] = molecular target: Factor B (Homo sapiens) (UniProt P00751); details: cited from earlier work
[2] = molecular target: C3b prepared from human EDTA plasma (human)
[3] = molecular target: C3b prepared from human EDTA plasma (human); remark: listed apart in the source
[4] = molecular target: C3bB, the AP C3 pro-convertase (factor B complexed with C3b) (human)

Sequence of C3b C3b (P01024 566-670): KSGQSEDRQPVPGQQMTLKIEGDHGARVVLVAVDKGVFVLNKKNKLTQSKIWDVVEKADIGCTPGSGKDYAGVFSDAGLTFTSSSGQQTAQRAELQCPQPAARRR
Sequence of tag-free recombinant human factor D (mature FD) (P00746 26-253): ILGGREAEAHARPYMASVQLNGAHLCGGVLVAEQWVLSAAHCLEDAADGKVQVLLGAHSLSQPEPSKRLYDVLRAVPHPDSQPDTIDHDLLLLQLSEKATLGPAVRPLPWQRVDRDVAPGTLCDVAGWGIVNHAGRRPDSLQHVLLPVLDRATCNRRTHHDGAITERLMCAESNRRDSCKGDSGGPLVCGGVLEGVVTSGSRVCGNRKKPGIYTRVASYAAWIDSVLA
Sequence of Factor B (Homo sapiens) (P00751 26-259): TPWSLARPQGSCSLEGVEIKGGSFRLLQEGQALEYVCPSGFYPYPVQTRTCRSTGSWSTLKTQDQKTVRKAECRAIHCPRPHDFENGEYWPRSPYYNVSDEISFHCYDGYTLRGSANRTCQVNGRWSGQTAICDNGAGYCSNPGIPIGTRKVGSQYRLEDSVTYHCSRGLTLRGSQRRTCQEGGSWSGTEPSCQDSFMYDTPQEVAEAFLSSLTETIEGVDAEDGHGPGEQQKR

C3b C3b (from UniProt P01024)
Kd [1]: 1400 nM

human, serum-derived, purified factor B (natural protein)
enhancement of the cleavage of FB by MASP-1cf (ratio of kobs/[E]T on C3bB and on free FB; SDS-PAGE densitometry of Bb, 37 °C) [2]: 100 fold | enhancement of the cleavage of FB by FD (ratio of kobs/[E]T on C3bB and on free FB; SDS-PAGE densitometry of Bb, 37 °C) [3]: 2e+07 fold

tag-free recombinant human factor D (mature FD) (from UniProt P00746 26-253) (enzyme)
kobs/[E]T (estimate of kcat/KM) of the cleavage of C3bB (1.1 uM) by FD (0.25 nM), SDS-PAGE densitometry of Bb, 37 °C [4]: 6.5e+06 M⁻¹ s⁻¹
